Laboratory results as given in publication doi:10.1101/2023.06.11.543863.
Read-outs that look alike come from different tables or passages of the source.

Columns and labels:
Experiment in all cases: FRET or BRET
[1] = target: E. coli ribosomal pre-translocation complex lacking an A-site tRNA (PRE^−A complex) (E. coli) (UniProt P0A7L0)
[2] = target: E. coli ribosomal pre-translocation complex lacking an A-site tRNA (PRE^−A complex) (E. coli) (UniProt P0A7L0); remark: listed apart in the source
[3] = target: E. coli ribosomal pre-translocation complex lacking an A-site tRNA (PRE^−A complex) (E. coli) (UniProt P0A7L0); remark: listed apart in the source

Chain of UniProt P0A7L0 (P0A7L0 whole entry, looked up, one chain of several): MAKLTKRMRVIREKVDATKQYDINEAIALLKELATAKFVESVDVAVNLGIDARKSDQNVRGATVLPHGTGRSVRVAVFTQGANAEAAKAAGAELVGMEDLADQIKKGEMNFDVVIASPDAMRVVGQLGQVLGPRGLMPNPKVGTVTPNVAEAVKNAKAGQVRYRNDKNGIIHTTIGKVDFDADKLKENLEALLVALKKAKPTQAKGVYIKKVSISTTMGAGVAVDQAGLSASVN

| Substance | Kd [1] [µM] | Kd [2] [µM] | Kd [3] [µM] |
| --- | --- | --- | --- |
| EQ2-EttA (E. coli EttA with both catalytic glutamates changed to glutamine) (from UniProt P0A9W3 1-555) (enzyme) | < 6 |  |  |
| EQ2-Uup (E. coli Uup with both catalytic glutamates changed to glutamine) (from UniProt P43672 1-635) (enzyme) | < 6 | 1 |  |
| EQ2-YbiT (E. coli YbiT with both catalytic glutamates changed to glutamine) (from UniProt P0A9U3 1-530) (enzyme) | < 6 |  |  |
| EQ2-YheS (E. coli YheS with both catalytic glutamates changed to glutamine) (from UniProt P63389 1-637) (enzyme) | < 6 |  | < 1 |
